Data on 4 molecules can be found in article PMC5315667 (The Plant journal : for cell and molecular biology, 2017).

Data set [1] concerns the target VvEG16 (Vitis vinifera, UniProt F6I323, C21S/DEL151-151/C188S). The data set is described as follows: X-ray crystallography, […] Å. To be noted: co-crystallised with 5 mM; negative subsites. In kind it is binding.
The target of data set [2] is T1, VvEG16 (Vitis vinifera, UniProt F6I323, E88A/DEL151-151). The data set can be described thus: X-ray crystallography, […] Å. Type of data set: binding. The note with it: negative subsites of chain A; from tXyGO mixture.
Data set [3] has as its target T1, VvEG16. The data set is described as follows: X-ray crystallography, […] Å. Type of data set: binding. To be noted: alpha-anomer, negative subsites of chain A.
Substrate in data set [4]: O=[N+]([O-])c1ccc(O[C@@H]2O[C@H](CO)[C@@H](O[C@@H]3O[C@H](CO)[C@@H](O)[C@H](O)[C@H]3O)[C@H](O)[C@H]2O)cc1
The data set can be described thus: chromogenic substrate hydrolysis, PNP release. In kind it is biochemical, Vitis vinifera. To be noted: 20 mM sodium citrate, pH 6, 30°C.

Substrate in data set [5]: O=[N+]([O-])c1ccc(O[C@@H]2O[C@H](CO)[C@@H](O[C@@H]3O[C@H](CO)[C@@H](O[C@@H]4O[C@H](CO)[C@@H](O)[C@H](O)[C@H]4O)[C@H](O)[C@H]3O)[C@H](O)[C@H]2O)cc1
The data set can be described thus: chromogenic substrate hydrolysis, PNP release. To be noted: 20 mM sodium citrate, pH 6, 30°C. In kind it is biochemical, Vitis vinifera.

Substrate in data set [6]: O=[N+]([O-])c1ccc(O[C@@H]2O[C@H](CO)[C@@H](O[C@@H]3O[C@H](CO)[C@@H](O[C@@H]4O[C@H](CO)[C@@H](O)[C@H](O)[C@H]4O)[C@H](O)[C@H]3O)[C@H](O)[C@H]2O)c(Cl)c1
The data set can be described thus: chromogenic substrate hydrolysis, CNP release. Type of data set: biochemical, Vitis vinifera. To be noted: 20 mM sodium citrate, pH 6, 30°C.

Substrate in data set [7]: O=[N+]([O-])c1ccc(O[C@@H]2O[C@H](CO)[C@@H](O[C@@H]3O[C@H](CO)[C@@H](O)[C@H](O)[C@H]3O)[C@H](O)[C@H]2O)c(Cl)c1
The data set can be described thus: chromogenic substrate hydrolysis, CNP release. In kind it is biochemical, Vitis vinifera. To be noted: 20 mM sodium citrate, pH 6, 30°C.

Substrate in data set [8]: O=[N+]([O-])c1ccc(O[C@@H]2O[C@H](CO)[C@@H](O[C@@H]3O[C@H](CO)[C@@H](O[C@@H]4O[C@H](CO)[C@@H](O)[C@H](O)[C@H]4O)[C@H](O)[C@H]3O)[C@H](O)[C@H]2O)c([N+](=O)[O-])c1
The data set can be described thus: purified protein. To be noted: 20 mM sodium citrate, pH 6, 30°C.

Substrate in data set [9]: O=[N+]([O-])c1ccc(O[C@@H]2O[C@H](CO)[C@@H](O[C@@H]3O[C@H](CO)[C@@H](O)[C@H](O)[C@H]3O)[C@H](O)[C@H]2O)c([N+](=O)[O-])c1
The data set can be described thus: purified protein. To be noted: 20 mM sodium citrate, pH 6, 30°C.

Substrate in data set [10]: O=[N+]([O-])c1ccc(O[C@@H]2O[C@H](CO)[C@@H](O[C@@H]3O[C@H](CO[C@H]4OC[C@@H](O)[C@H](O)[C@H]4O)[C@@H](O[C@@H]4O[C@H](CO[C@H]5OC[C@@H](O)[C@H](O)[C@H]5O)[C@@H](O[C@@H]5O[C@H](CO[C@H]6OC[C@@H](O)[C@H](O)[C@H]6O)[C@@H](O)[C@H](O)[C@H]5O)[C@H](O)[C@H]4O)[C@H](O)[C@H]3O)[C@H](O)[C@H]2O)c(Cl)c1
The data set can be described thus: chromogenic substrate hydrolysis, CNP release. In kind it is biochemical, Vitis vinifera. To be noted: 20 mM sodium citrate, pH 6, 30°C.

Take `OC[C@H]1OC(O)[C@H](O)[C@@H](O)[C@@H]1O[C@@H]1O[C@H](CO[C@H]2OC[C@@H](O)[C@H](O)[C@H]2O)[C@@H](O[C@@H]2O[C@H](CO[C@H]3OC[C@@H](O)[C@H](O)[C@H]3O)[C@@H](O[C@@H]3O[C@H](CO[C@H]4OC[C@@H](O)[C@H](O)[C@H]4O)[C@@H](O)[C@H](O)[C@H]3O)[C@H](O)[C@H]2O)[C@H](O)[C@H]1O` (stereo partly drawn) [XXXG]: the “X-ray crystallography, 1.59 Å” value on VvEG16 [1] is on record as “Fortuitous crystallization of this variant in complex with the heptasaccharide XXXG in the negative subsites”. Moreover, at VvEG16 [2], the “X-ray crystallography, 1.79 Å” value was “Chain A additionally contained an apparent XXXG moiety in the negative subsites”.

For `OC[C@H]1O[C@@H](O[C@@H]2[C@@H](O)[C@H](O[C@H]3[C@H](O)[C@@H](O)[C@H](O[C@H]4[C@H](O)[C@@H](O)C(O)O[C@@H]4CO)O[C@@H]3CO)O[C@H](CO)[C@H]2O)[C@H](O)[C@@H](O)[C@@H]1O` (stereo partly drawn) [G3GGG, β-D-Glcp-(1,3)-β-D-Glcp-(1,4)-β-D-Glcp-(1,4)-β-D-Glcp], the “X-ray crystallography, 1.65 Å” value on VvEG16 [3] was “presence of the α-anomer of G3GGG in the negative subsites”.

B1: VvEG16 (Vitis vinifera; DEL151-151) (protein)
chain: MADPSLHHEAQPLKFIAVDYCPESCTHSPESSTITLTFDHRGGSRWRSTTRFQYGTFSSLIQCPKGNTSGLNFNIYLSSLEGDKSQDEIDFEFLGKDKRIVQTNYYTAGTGNREAIHDLGFDCSDGFHEYVIKWGPDLIQWLIDGKVIRSVRADGEGFPQKPMFLYASVWDASYIDEGRWTGPYVGCDAPYICLYKNVNVPVGTAVE
As usually defined, the Km is the concentration of substrate that gives half-maximal velocity. The term kcat denotes the number of substrate molecules converted per active site and unit of time at saturation. As a reminder, the kcat/Km is the second-order rate constant that governs catalysis at low substrate concentration. For the molecule B1, the Km in data set [4] amounted to 5.9 ± 0.6 mM; in data set [5], 2.8 ± 0.2 mM; in data set [6], 1.1 ± 0.1 mM; in data set [7], 3.5 ± 0.4 mM; in the data set “purified protein [8]”, 0.80 ± 0.06 mM; in “purified protein [9]”, 2.0 ± 0.2 mM. In addition, the kcat was determined as 0.000383 ± 3.33e-05 s⁻¹ in data set [4]; 0.0025 ± 0.0001 s⁻¹ in [5]; 0.0172 ± 0.000667 s⁻¹ in data set [6]; 0.0075 ± 0.000333 s⁻¹ in data set [7]; 1.58 ± 0.0333 s⁻¹ in “purified protein [8]”; 0.333 ± 0.0167 s⁻¹ in the data set “purified protein [9]”. Moreover, the kcat/Km in [4] worked out at 0.065 M⁻¹ s⁻¹; in data set [5], 0.9 M⁻¹ s⁻¹; in [6], 16 M⁻¹ s⁻¹; in data set [7], 2.1 M⁻¹ s⁻¹; in “purified protein [8]” it was 2000 M⁻¹ s⁻¹; in “purified protein [9]” it was 170 M⁻¹ s⁻¹.

B2: VvEG16 (Vitis vinifera) (protein)
chain: MADPSLHHEAQPLKFIAVDYCPESCTHSPESSTITLTFDHRGGSRWRSTTRFQYGTFSSLIQCPKGNTSGLNFNIYLSSLEGDKSQDEIDFEFLGKDKRIVQTNYYTAGTGNREAIHDLGFDCSDGFHEYVIKWGPDLIQWLIDGKVIRSVVRADGEGFPQKPMFLYASVWDASYIDEGRWTGPYVGCDAPYICLYKNVNVPVGTAVE
For B2, in data set [6], the Km is 0.8 ± 0.1 mM, the kcat worked out at 0.0163 ± 0.0005 s⁻¹ and the catalytic efficiency (kcat/Km) is 20 M⁻¹ s⁻¹. For the same molecule, in data set [10], the Km came to 1.1 ± 0.3 mM, the kcat is 0.2 ± 0.00833 s⁻¹ and the kcat/Km worked out at 180 M⁻¹ s⁻¹.
